Target: the molecule itself
Experiment: non-reducing SDS-PAGE with immunoblot

B1: His-tagged human recombinant peroxiredoxin 1 with Cys83 changed to Ser83 (natural protein)
chain: MSSGNAKIGHPAPNFKATAVMPDGQFKDISLSDYKGKYVVFFFYPLDFTFVCPTEIIAFSDRAEEFKKLNCQVIGASVDSHFSHLAWVNTPKKQGGLGPMNIPLVSDPKRTIAQDYGVLKADEGISFRGLFIIDDKGILRQITVNDLPVGRSVDETLRLVQAFQFTDKHGEVCPAGWKPGSDTIKPDVQKSKEYFSKQK
stoichiometry N: 2
